Results taken from patent US20110257086A1 (Johns Hopkins, published 2011).

Tests used:
Assay in all cases: cell-based or functional assay
[1] = molecular target: T1, ghrelin O-acyltransferase (GOAT) endogenous in human cell lines (HEL, Kato III, AGS) (human, UniProt Q96T53 1-435)
T1 sequence: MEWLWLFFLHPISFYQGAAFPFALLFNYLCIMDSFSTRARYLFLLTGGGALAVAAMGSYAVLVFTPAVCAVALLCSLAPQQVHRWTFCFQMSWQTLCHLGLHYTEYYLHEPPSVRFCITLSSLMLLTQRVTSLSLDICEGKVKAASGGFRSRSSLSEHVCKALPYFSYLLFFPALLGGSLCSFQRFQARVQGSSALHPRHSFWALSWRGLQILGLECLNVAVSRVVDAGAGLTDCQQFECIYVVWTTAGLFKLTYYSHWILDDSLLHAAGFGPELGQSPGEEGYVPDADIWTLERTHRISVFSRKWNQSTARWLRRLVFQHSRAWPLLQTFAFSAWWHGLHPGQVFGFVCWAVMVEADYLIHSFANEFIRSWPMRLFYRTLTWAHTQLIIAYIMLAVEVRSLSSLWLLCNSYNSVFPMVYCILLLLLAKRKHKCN

p300 HAT = molecular target: p300 HAT
PCAF HAT = molecular target: PCAF HAT
[2] = molecular target: serotonin N-acetyltransferase

B1: GO-CoA-Tat (Compound 1 of FIG. 1C), bisubstrate analog inhibitor of ghrelin O-acyltransferase (peptide)
peptide: GSSFLSPEHQYGRKKRRQRRR
modifications: Ser3 of ghrelin replaced with 1,2-diaminopropionic acid (Dap), whose side-chain amine carries an octanoyl group conjugated at its alpha carbon to coenzyme A; amino-hexanoyl (Ahx) linker between ghrelin residue 10 and the Tat peptide
For B1, the “IC50 of reduction of acyl-ghrelin levels in cell lysates (HEL, Kato III, AGS cells)” value [1] was 1000 to 2000 nM, the “inhibition of acetyltransferase activity at 10 µM GO-CoA-Tat (alpha-KGDH coupled spectrophotometric assay)” value (“inhibition of acetyltransferase activity” below) (p300 HAT) was less than 15 % inhibition and the “inhibition of acetyltransferase activity” value (PCAF HAT) was less than 15 % inhibition. The “inhibition of acetyltransferase activity” value [2] was less than 15 % inhibition.
